Data on one molecule can be found in article PMC4538837, “Structural basis for substrate recognition and processive cleavage mechanisms of the trimeric exonuclease PhoExo I”.

This data set has as its target PhoExo I D80N (Pyrococcus horikoshii OT3, UniProt A0A060P168 1-229, D80N). Kind of data set: X-ray crystal structure (1.95 A); Mg2+ (soaked), one at A metal site; EMSA: 25 mM Hepes-NaOH pH 7.5, 50 mM NaCl, 0.1 mM EDTA, 0.1 mg/ml BSA, 5 nM probe, 0-1600 nM trimer, 5 min 55 C, then 0.05% glutaraldehyde 10 min at room temperature; 7.5% native PAGE in TBE. Particulars: protein: recombinant; tags: C-terminal 4xHis (mutants made from the CHis plasmid; crystal construct not detailed in the material); chain copies: 3; single strand; 3 copies per trimer. A general note: Mobility shift assays separate free from complexed probe on a gel.

PhoExo I D80N, sequence (A0A060P168 entry or part of it D80N | D80N D80N): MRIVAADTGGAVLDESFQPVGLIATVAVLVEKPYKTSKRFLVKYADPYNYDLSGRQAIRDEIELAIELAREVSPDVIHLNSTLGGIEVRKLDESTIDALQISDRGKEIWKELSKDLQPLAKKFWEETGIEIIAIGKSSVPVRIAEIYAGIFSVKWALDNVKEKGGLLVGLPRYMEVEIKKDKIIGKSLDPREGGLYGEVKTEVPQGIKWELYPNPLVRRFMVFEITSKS

B1: poly-dT 7 nt (ssDNA)
DNA: TTTTTTT
In the case of B1, the binding result is given as “binds”.
